Experimental data taken from US7422862B2, “Methods for identifying modulators of apoptosis” (The Burnham Institute, priority 2001, dated 2008).

Legend:
[1] = molecular target: Bax (Homo sapiens, UniProt Q07812); test: Suppression of apoptosis induced by Bax over-expression (Humanin mutants); format: cell-based; set-up: expressed in transfected cells; host or cells: HEK293T; conditions: GFP-fusion polypeptides, 3:1 ratio of HN:Bax plasmid DNA
Method: Apoptosis assays were performed as follows. Both floating and adherent cells (after trypsinization) were collected 48 hr after transfection, fixed, and stained using 4′,6-diamidine-2′-phenylindole dihydrochloride (DAPI) for assessing apoptosis based on nuclear fragmentation and chromatin condensation (Fields and Song, supra (1989)).
In order to explore whether a correlation exists between Humanin binding to Bax and Humanin-mediated suppression of apoptosis, Bax was co-expressed with various GFP-fusion polypeptides encoding wild-type, full-length Humanin or various truncation and site-specific mutants of Humanin (Table 1). Expression of all GFP-fusion polypeptides was confirmed by immunoblotting, and ability to bind Bax was determined by co-immunoprecipitation assay. Each Humanin mutant was scored for ability to suppress apoptosis induced by Bax over-expression by >50% using a 3:1 ratio of HN:Bax plasmid DNA. […] Based on these studies, an active region of the 24 amino-acid Humanin peptide, mapped to residues 7-17.
Cell culture and transfections were performed as follows. CSM14.1, HCT116, Cos-7, and SF268 cells were cultured in DMEM high glucose media (Irvine Scientific, Santa Ana, Calif.) containing 10% fetal bovine serum (FBS). PC-3 cells were cultured with RPMI 1640 media containing 10% FBS. Transfection of cells was performed using SuperFect (Qiagen, Chatsworth, Calif.) or LipofectaminePLUS reagent ([…]).

[2] = molecular target: Bcl-2 (Homo sapiens, UniProt P10415); test: Co-immunoprecipitation with Bcl-2 family proteins in HEK293T cells; format: binding
Sequence of Bcl-2 (P10415 whole entry, species assumed): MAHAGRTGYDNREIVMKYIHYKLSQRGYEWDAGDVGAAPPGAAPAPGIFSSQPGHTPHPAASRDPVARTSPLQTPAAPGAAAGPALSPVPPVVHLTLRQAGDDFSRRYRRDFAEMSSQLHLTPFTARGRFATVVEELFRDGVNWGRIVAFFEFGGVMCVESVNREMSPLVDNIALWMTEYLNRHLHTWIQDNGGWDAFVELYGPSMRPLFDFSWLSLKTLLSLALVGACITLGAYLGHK
Text: (§1) (A) HEK293T cells were transfected with pcDNA3-myc plasmids encoding Bax or other Bcl-2 family proteins with GFP, GFP-HN, or GFP-HN(C8P). Cell lysates were immunoprecipitated with polyclonal anti-GFP antibody. The immunoprecipitates or the lysates were blotted with anti-myc or anti-GFP antibodies, respectively. The slower migrating form of GFP seen in lane 1 (asterisk)represents an alternative form of GFP produced from the wild-type (control) p-EGFP-Cl plasmid (http://clonotech.com). (B) Testes of three-week-old mice were homogenized in lysis buffer (0.1% Triton X-100, 50 mM Tris-HCl, pH7.5, 1 mM EDTA, plus protease inhibitor cocktail). The lysates were immunoprecipitated with control rabbit serum or polyclonal anti-mouse Bax antibody. The immunoprecipitates or the lysates were subjected to electrophoresis in Tris/Tricine gels (16% T, 3% C), electroblotted to PVDF membrane, and immunoblotted with polyclonal anti-HN antibody or monoclonal anti-Bax antibody 6A7 (Trevigen). (C) The affinity (Kd) of Bax/HN interaction was measured by fluorescence polarization assay, using various concentrations of purified recombinant Bax and 40 nM rhodamine-conjugated HN peptide. Control peptide from CD40 is also shown (mean +Std Dev; n=3).
(§2) Furthermore, multiple Bcl-2 family proteins were surveyed for interactions with Humanin by coimmunoprecipitation experiments (FIG. 5A).
(§3) Immunoblotting and immunoprecipitations were performed as follows. Immunoblotting was performed as described previously (Fields and Song, Nature 340:245-246 (1989)). For co-immunoprecipitations, cells were cultured in 50 uM […] Valine Alanine Asparate fluoromethyl-ketone (zVAD-fmk) to prevent apoptosis. Cells were suspended in lysis buffer (50 mM Tris-HCl, pH7.4; 150 mM NaCl; 20 mM EDTA; 50 mM NaF; 0.5% NP-40; 0.1 mM Na3VO4; 20 ug/ml Leupeptin; 20 ug/ml Aprotinin; 1 mM DTT; and 1 mM PMSF). Lysates (200 ul diluted in 1 ml final volume of lysis buffer) were cleared by incubation with 15 ul of protein G-Sepharose 4B (Zymed) and then incubated with 15 ul of polyclonal antibody and 15 ul of protein G at 4° C. overnight. Beads were then washed 4 times with 1.5 mls lysis buffer before boiling in Laemmli sample buffer and performing SDS-PAGE/immunoblotting.

[3] = molecular target: Bcl-XL (Homo sapiens, UniProt Q07817); test: as above; format: binding
Sequence of Bcl-XL (Q07817 whole entry, species assumed): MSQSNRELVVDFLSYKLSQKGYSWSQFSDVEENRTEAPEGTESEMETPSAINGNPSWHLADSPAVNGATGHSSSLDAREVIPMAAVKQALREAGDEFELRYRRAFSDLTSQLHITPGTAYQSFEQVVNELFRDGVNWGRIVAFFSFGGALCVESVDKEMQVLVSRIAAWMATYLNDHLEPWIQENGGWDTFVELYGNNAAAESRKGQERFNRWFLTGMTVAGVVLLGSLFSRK
Text: as §1, §2, §3

[4] = molecular target: T1, Bcl-B (Homo sapiens, UniProt Q9HD36); test: as above; format: binding
T1 construct: expressed in transfected cells; host or cells: HEK293T
T1 sequence (Q9HD36 1-204): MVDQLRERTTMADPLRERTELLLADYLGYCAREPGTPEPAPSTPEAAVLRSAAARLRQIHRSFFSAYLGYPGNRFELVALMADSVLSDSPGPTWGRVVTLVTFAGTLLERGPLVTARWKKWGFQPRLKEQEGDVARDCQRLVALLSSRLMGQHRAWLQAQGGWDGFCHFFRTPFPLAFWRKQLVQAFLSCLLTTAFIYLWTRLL
Text: as §1, §2, §3

[5] = tested on: Bax-deficient HCT116 cells; test: STS-induced apoptosis in Bax-deficient HCT116 cells; format: cell-based, human
[6] = tested on: HCT116 parental cells; test: STS-induced apoptosis in HCT116 parental cells; format: cell-based, human
[7] = molecular target: T2, t-Bid (Homo sapiens, UniProt P55957); test: Co-immunoprecipitation of Humanin with t-Bid in 293T cells; format: binding; set-up: expressed in transfected cells
T2 sequence (P55957 61-195 limits assumed): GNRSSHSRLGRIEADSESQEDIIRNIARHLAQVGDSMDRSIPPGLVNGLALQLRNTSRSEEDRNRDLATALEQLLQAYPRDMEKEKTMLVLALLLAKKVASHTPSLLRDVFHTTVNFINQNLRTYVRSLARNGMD
Method: The lysates were immunoprecipitated with (A) anti-GFP antibody or (B) anti-tBid antibody and blotted with (A) anti-HA antibody or (B) anti-GFP antibody. The data shown were obtained using the cytosolic form of Humanin; however, both cytosolic and mitochondrial forms of Humanin were tested and the results were the same.
The following experiments confirm an interaction between Humanin and Bax. Similar experiments were performed to confirm an interaction between Humanin and Bid.

[8] = molecular target: T2, t-Bid; test: Bid-induced apoptosis in CSM14.1 cells (DAPI staining); format: cell-based; set-up: expressed in transfected cells; host or cells: CSM14.1 rat hippocampal neuronal cells; conditions: 24 hours after transfection
Method: Apoptosis was examined by DAPI staining. The data shown were obtained using the cytosolic form of Humanin; however, both cytosolic and mitochondrial forms of Humanin were tested and the results were the same.
Rat neuronal cell line CSM14.1 cells were transfected with various plasmids using the Lipofectamine reagent (Invitrogen). For transfection, 10×10^5 cells were plated per well using 6 well plates. Each well received 1 μg DNA plus […] of Lipofectamine. After 24 hours of transfection, the percentage of cell death was determined using 4′-6-diamidino-2-phenylindole (DAPI) staining. […] The data shown were obtained using the cytosolic form of Humanin; however, both cytosolic and mitochondrial forms of Humanin were tested and the results were the same.

Sequence of Bax (Q07812 whole entry, species assumed, the tested form may be a part): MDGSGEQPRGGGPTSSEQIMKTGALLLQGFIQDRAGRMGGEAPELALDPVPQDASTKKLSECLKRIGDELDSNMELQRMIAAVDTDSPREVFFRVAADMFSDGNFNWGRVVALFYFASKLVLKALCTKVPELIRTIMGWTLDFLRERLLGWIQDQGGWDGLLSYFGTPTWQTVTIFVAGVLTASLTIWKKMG

Substance: GFP-HN: Wild-type full-length Humanin fused to Green Fluorescent Protein
- Bax suppression [1]: + (ability to suppress apoptosis induced by Bax over-expression by >50%)
- co-immunoprecipitation with Bcl-2 [2]: did not co-immunoprecipitate
- co-immunoprecipitation with Bcl-XL [3]: did not co-immunoprecipitate
- co-immunoprecipitation with Bcl-B [4]: did not co-immunoprecipitate
- suppression of STS-induced apoptosis [5]: failed to suppress
- reduction of percentage of cells undergoing STS-induced apoptosis [6]: about half

Substance: Humanin: 24 amino acid polypeptide, cytosolic form of human Humanin (SEQ ID NO:2); used as synthetic peptide or expressed fusion
- interaction with t-Bid by co-immunoprecipitation [7]: found to interact
- Bid-induced apoptosis [8]: decreased
